From US20110064740A1

Assays:
[1] = target: Cell-surface full length amyloid precursor protein (APP) on HEK293T cells transfected with wild type APP DNA (UniProt P05067); assay: FMAT ABI8200, HEK293T cells transfected with wild type APP, mock subtracted; Experiment 1
[2] = target: Cell-surface full length amyloid precursor protein (APP) on HEK293T cells transfected with wild type APP DNA (UniProt P05067); assay: FMAT ABI8200, HEK293T cells transfected with wild type APP, mock subtracted; Experiment 2

Chain of Cell-surface full length amyloid precursor protein (APP) on HEK293T cells transfected with wild type APP DNA (P05067 18-770): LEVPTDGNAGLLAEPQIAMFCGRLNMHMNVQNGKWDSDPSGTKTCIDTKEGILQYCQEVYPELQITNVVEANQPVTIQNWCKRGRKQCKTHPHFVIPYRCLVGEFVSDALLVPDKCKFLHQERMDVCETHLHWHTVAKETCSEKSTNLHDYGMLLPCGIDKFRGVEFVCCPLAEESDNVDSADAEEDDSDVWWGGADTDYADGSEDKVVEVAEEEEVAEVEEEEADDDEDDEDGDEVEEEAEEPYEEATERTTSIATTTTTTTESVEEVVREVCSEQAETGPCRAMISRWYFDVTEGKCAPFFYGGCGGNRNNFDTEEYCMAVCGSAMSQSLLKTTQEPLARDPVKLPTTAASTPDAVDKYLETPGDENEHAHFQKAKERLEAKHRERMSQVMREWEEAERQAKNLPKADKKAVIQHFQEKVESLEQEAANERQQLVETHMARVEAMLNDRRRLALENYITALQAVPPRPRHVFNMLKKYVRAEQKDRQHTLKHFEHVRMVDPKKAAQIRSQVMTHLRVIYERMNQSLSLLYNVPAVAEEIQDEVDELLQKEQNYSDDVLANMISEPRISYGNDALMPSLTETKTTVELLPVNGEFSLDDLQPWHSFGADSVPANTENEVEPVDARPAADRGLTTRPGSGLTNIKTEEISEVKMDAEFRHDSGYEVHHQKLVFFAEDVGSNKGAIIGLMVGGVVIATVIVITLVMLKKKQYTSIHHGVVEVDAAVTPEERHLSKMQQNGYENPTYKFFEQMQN

% of LN27 binding [1]: 9.9%
% of LN27 binding [2]: 2.2%
B1: Mouse monoclonal antibody 2E7 (antibody, mouse IgG2a, V domains shown)
VH: EVKLVESGGGLVQPGGSLKLSCAVSGFTFSDNGMAWVRQAPRKGPEWIAFISNLAYSIDYADTVTGRFTISRDNAKNTLYLEMSSLRSEDTAMYYCVSGTWFAYWGQGTLVTVSA
VL: DVVLTQTPLSLPVSLGDQASISCRVSQSLLHSNGYTYLHWYLQKPGQSPKLLIYKVSNRFSGVPDRFSGSGSGTDFTLKISRVEAEDLGVYFCSQTRHVPYTFGGGTKLEIK
